Measured values published in the supplement of paper PMC9732359.
± gives the uncertainty stated by the source.

experiment: protein stability index of a GFP-peptide fusion (yeast GPS) (PSI 1-4); higher = more stable; sorted into four equal gates, so the index is relative within each strain; conditions: doa10∆
Method in brief: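 Tiled 17-residue yeast protein peptides were fused downstream of GFP in a plasmid that also expresses Cherry, and the pooled library was carried in yeast. Mid-log cultures in leucine-free medium were sorted into four equal gates by GFP/Cherry fluorescence ratio, and plasmids from each gate were PCR-amplified and Illumina-sequenced, with reads assigned to strains by barcodes. The protein stability index for each peptide was each gate's read frequency times its gate number, summed.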

Going from LDIINPGSVEEVDKSKL [YDL116W/NUP84] to LDLANSGDESNVISSKD [YDL116W/NUP84], the protein stability index rises from 2.94 ± 0.1 to 3.31 ± 0.09.

Compared with LDLIPHSSSVFKGTDFV [SRB4], LDMELAELDPSLRTPIA [SEC65] is higher in protein stability index: 2.42 ± 0.062 for the first, 3.34 ± 0.14 for the second.

LDNFETKTEALLSDVVS [YJL041W/NSP1] and LDPNLITLALSSNPNSS [SRB4] are within error of each other in protein stability index: 2.4 ± 0.054 for the first, 2.31 ± 0.067 for the second.

First: LDQTKDTRITHLLRQTN [SNF2]
Second: LDSDSENDLSFALMRYY [RRI2]
The protein stability index of the first is lower: 1.34 ± 0.036 for the first, 2.8 ± 0.068 for the second.

LEDGDVVLFNRQPSLHR [RPO31] and LEDKLRAVLTPLITRHC [RRP46] are within error of each other in protein stability index: 2.42 ± 0.072 for the first, 2.53 ± 0.059 for the second.

First: LEERFDPKSPTKRSIAI [YMR129W/POM152]
Second: LEETRTTIGDTTDKNTT [BRN1]
The protein stability index of the first is lower: 2.94 ± 0.055 for the first, 3.2 ± 0.071 for the second.

LEFSIYHRLSNKDMIKN [CSN12] and LEGKGSLEEIIAEGQKK [RPP2B] are within error of each other in protein stability index: 2.36 ± 0.096 for the first, 2.5 ± 0.12 for the second.

LEHIDSKSEFAHRIMLT [FAS2] and LEHPYGKEVEVLMETKN [SNU114] are within error of each other in protein stability index: 2.17 ± 0.063 for the first, 2.26 ± 0.083 for the second.

First: LEIVYGYALRDVQARRQ [RPP1]
Second: LEKGNNPSVKQGEVGAV [SWP82]
The protein stability index of the first is lower: 2.43 ± 0.15 for the first, 2.89 ± 0.076 for the second.

LEKKFPDRHVIFLAERR [RPS7B] and LEKKFQDRHVIFLAERR [RPS7A] are within error of each other in protein stability index: 2.77 ± 0.066 for the first, 2.53 ± 0.23 for the second.

First: LEPDYQAPFSTSTKDKN [MED1]
Second: LEPSGSYWGYKGAATGK [PRE10]
The protein stability index of the first is higher: 2.84 ± 0.075 for the first, 2.37 ± 0.27 for the second.

Compared with LERRELEGTRVSLEERT [SMC4], LERVKRIMEKSVILSVI [YML031W/NDC1] is lower in protein stability index: 3.4 ± 0.096 for the first, 2.71 ± 0.086 for the second.

First: LESVGIEIEDEKVSSVL [RPP2A]
Second: LEVGKNNFCALYNLSNP [RPN14]
The protein stability index of the first is higher: 3.04 ± 0.075 for the first, 1.58 ± 0.092 for the second.

Compared with LEVVQYIEDGRNPDIYT [NUT2], LEYWCNPPYSQCIVYPN [SOH1] is lower in protein stability index: 3.14 ± 0.059 for the first, 2.03 ± 0.048 for the second.

Compared with LFDEFGNLIGVDPFDSD [SNU114], LFEIYRDLGDDRVFNVP [YJR042W/NUP85] is lower in protein stability index: 3.12 ± 0.078 for the first, 2.87 ± 0.11 for the second.

Going from LFEVNPSQTLFSISYKP [SRP21] to LFGNNAGNTTTGGGLFG [YGL172W/NUP49], the protein stability index rises from 2.57 ± 0.071 to 2.95 ± 0.18.

Compared with LFKPLNKTLTLDLKECY [ARP7], LFLEPSWSSSAAVIMRC [PCI8] is lower in protein stability index: 2.4 ± 0.067 for the first, 1.19 ± 0.087 for the second.

Going from LFLNTGCLSVLYQSKGR [SRP68] to LFQENDDDDDDDDEVDY [DSN1], the protein stability index rises from 1.66 ± 0.054 to 2.94 ± 0.14.

Going from LFVGTDRQLHEISTSKK [RPN14] to LGASFGQQQQQSQTNAF [YGL172W/NUP49], the protein stability index falls from 2.91 ± 0.07 to 2.09 ± 0.11.

Going from LGEIPNPMKKHKPNEGR [SIR4] to LGFVLLRDYTTVPRIVQ [RPN2], the protein stability index falls from 2.58 ± 0.077 to 1.58 ± 0.046.

Going from LGKLQDVFNLLPNLGTP [RPN8] to LGMLDDNKMDSVKEDVK [SMC4], the protein stability index falls from 3.06 ± 0.12 to 2.12 ± 0.15.

LGMMYEQKLIDQHVINI [YCS4] and LGQIGACHVEVPYVLMG [COB] are within error of each other in protein stability index: 2.08 ± 0.061 for the first, 2.05 ± 0.083 for the second.

Compared with LGRLSVRELVEKIDGMD [RPC82], LGSDSSDGHNSEKKDTD [SRB4] is lower in protein stability index: 3.08 ± 0.19 for the first, 1.68 ± 0.11 for the second.

Compared with LGTTEGDIKVLDSNFNL [RPN14], LGYNFDGSAIEDDDIRS [SNF5] is higher in protein stability index: 3.02 ± 0.12 for the first, 3.39 ± 0.086 for the second.

Work on LHIHLNQILQTEIENYL [YDL116W/NUP84] yielded a protein stability index of 1.88 ± 0.054.
